# Test results: PMC10950897, “VCF1 is a p97/VCP cofactor promoting recognition of ubiquitylated p97-UFD1-NPL4 substrates” (Nature Communications, 2024)
# How the values were obtained:
# Ub(G76V)-GFP, U2OS cells = assay: QIBC of Ub(G76V)-GFP after siRNA; assay type: cell-based, human; conditions: siRNA 20 nM, QIBC >10,000 cells
# Method: (§1) U2OS (catalog no. HTB-96) cells were obtained from ATCC. HEK293-EBNA1-6E cells were a kind gift from Yves Durocher (National Research Council Canada, Montreal, Canada). All mammalian cell lines were cultured under standard conditions at 37 °C and 5% CO2 in DMEM (Thermo) supplemented with 10% FBS (v/v) and penicillin-streptomycin (Thermo). Recombination cloning-compatible U2OS cells were generated using the Flp-In T-Rex Core Kit (Thermo) according to the manufacturer’s instructions and maintained under selection using Blasticidin (Invivogen) and Zeocin (Thermo). To generate cell lines stably expressing GFP-VCF1, U2OS Flp-In T-Rex cells (Thermo) were co-transfected with GFP-VCF1 constructs and pOG44 (Thermo) plasmids, followed by selection with Hygromycin (Invitrogen). Single clones were carefully screened for uniform expression of ectopic GFP-VCF1 at low levels and maintained under selection with Blasticidin and Hygromycin. To induce GFP-VCF1 expression, cells were treated with Doxycycline (DOX) (0.5 µg/ml) for 16 h. U2OS cell lines stably expressing Ub(G76V)-GFP or Ub(G76V)-GFP-20AA were described previously. A U2OS cell line stably expressing Ub(G76V)-GFP-NES was generated under G418 (Invivogen) selection. […]
# (§2) Mammalian cells grown on coverslips were fixed in formalin buffer (VWR) for 15 min at room temperature (RT). […] Quantitative image-based cytometry (QIBC) was performed as described. […]
# [1] = system: NPL4, U2OS/Ub(G76V)-GFP cells; assay: Immunoblot of siRNA knockdown efficiency; assay type: cell-based, human
# Method: All siRNAs (Sigma) were used at 20 nM and transfected with Lipofectamine RNAiMAX reagent (Thermo) according to manufacturer’s instructions. The following siRNA oligonucleotides were used: Non-targeting control (CTRL): 5′-[…]-3′; VCF1(#1): 5’-[…]-3’; VCF1(#2): 5’-[…]-3’; p47: 5’-[…]-3’; NPL4: 5’-[…]-3’; FAF1: 5′-[…]-3′; p97: Dharmacon SmartPool (D-008727).
# Immunoblotting was performed as previously described. Immunoprecipitation (IP) of HA-tagged proteins was performed using Anti-HA Affinity matrix (Roche) under denaturing conditions, unless otherwise stated. GFP-trap and […] Fab-trap agarose (Chromotek) were used according to manufacturer’s instructions. Cell lysis was performed using RIPA buffer (140 mM NaCl; 10 mM Tris-HCl, pH 8.0; 0.1% sodium deoxycholate; 1% Triton X-100; 0.1% SDS; 1 mM EDTA; 0.5 mM EGTA) or EBC buffer (50 mM Tris, pH 7.5; 150 mM NaCl; 1 mM EDTA; 0.5% NP-40, 1 mM DTT). IPs were washed in non-denaturing buffer (50 mM Tris-HCl, pH 7.5; 150 mM NaCl; 0.5 mM EDTA). Cell lysis and IP under partially denaturing conditions were performed using denaturing buffer (20 mM Tris-HCl, pH 7.5; 50 mM NaCl; 0.5% sodium deoxycholate; 0.5% NP-40; 0.5% SDS; 1 mM EDTA). […]
# p97 (His6-p97 WT) = biological target: T1, p97 (His6-p97 WT) (Homo sapiens, UniProt P55072); assay: SPR: binding to immobilized His6-p97 WT; conditions: N167A mutants; in vitro binding experiments and SPR, up to 300 nM (peptides) or 100 nM (full-length)
# T1 construct: Coomassie Blue staining of full-length and truncated His6-p97 proteins purified from E; made in house; host or cells: E. coli BL21(DE3)
# Method: Surface Plasmon Resonance (SPR)
# All SPR experiments were performed at 25 °C on a Biacore T200 instrument equipped with CM5 or CM7 sensor chips (Cytiva, Uppsala, Sweden). SPR running buffers and amine-coupling reagents (N-ethyl-N’-(3-dimethlyaminoproply)carbodiimide (EDC), N-hydroxysuccinimide (NHS), and ethanolamine HCl) were purchased from Cytiva. 1x PBS-P (11.9 mM NaH2PO4-Na2HPO4, pH 7.4; 137 mM NaCl; 2.7 mM KCl; 0.005% surfactant P20) supplemented with 0.5 mM TCEP was used as running buffer for the immobilization and the binding experiments with Strep-HA-VCF1 full-length proteins. For the VCF1 C-terminal peptide binding studies, 2% DMSO was additionally included in the running buffer. Eight solvent correction samples ranging from 1.5% DMSO to 2.8% DMSO prepared in either PBS-P, 0.5 mM TCEP or Tris-based buffer were used to correct buffer/DMSO mismatches. The CM5 chip was used for the kinetic analysis of the interactions between p97 proteins and VCF1 full-length proteins or VCF1 C-terminal peptides. p97 was immobilized at different densities on the carboxymethyl dextran sensor chip surface by amine-coupling chemistry. For kinetic analysis, p97 was immobilized at low density (~400 RU) on flow cells 2 (Fc2) and 3 (Fc3), respectively, of a CM5 chip. […] The dissociation rate of the p97-VCF1 complexes was monitored for 400 s. […] Binding experiments were measured in triplicates. […]
# p97 = assay: GFP IP of GFP-VCF1 alanine mutants from U2OS cells; assay type: binding, human; conditions: full-length GFP-VCF1, U2OS
# Method: (§3) Immunoblotting was performed as previously described. Immunoprecipitation (IP) of HA-tagged proteins was performed using Anti-HA Affinity matrix (Roche) under denaturing conditions, unless otherwise stated. GFP-trap and […] Fab-trap agarose (Chromotek) were used according to manufacturer’s instructions. Cell lysis was performed using RIPA buffer (140 mM NaCl; 10 mM Tris-HCl, pH 8.0; 0.1% sodium deoxycholate; 1% Triton X-100; 0.1% SDS; 1 mM EDTA; 0.5 mM EGTA) or EBC buffer (50 mM Tris, pH 7.5; 150 mM NaCl; 1 mM EDTA; 0.5% NP-40, 1 mM DTT). IPs were washed in non-denaturing buffer (50 mM Tris-HCl, pH 7.5; 150 mM NaCl; 0.5 mM EDTA). Cell lysis and IP under partially denaturing conditions were performed using denaturing buffer (20 mM Tris-HCl, pH 7.5; 50 mM NaCl; 0.5% sodium deoxycholate; 0.5% NP-40; 0.5% SDS; 1 mM EDTA). All lysis and wash buffers were supplemented with 1 mM fresh PMSF Protease Inhibitor (Thermo), complete EDTA-free protease inhibitor Cocktail Tablets (Roche), 1.25 mM N-ethylmaleimide (Sigma) and 50 µM PR-619 (Calbiochem).
# [2] = system: GFP-VCF1 WT / N167A interactome, U2OS cells; assay: GFP IP mass spectrometry, comparison of VCF1 WT and N167A interactomes (WT/N167A); assay type: binding, human; conditions: stably expressed GFP-VCF1, MS interactome
# Method: U2OS (catalog no. HTB-96) cells were obtained from ATCC. HEK293-EBNA1-6E cells were a kind gift from Yves Durocher (National Research Council Canada, Montreal, Canada). All mammalian cell lines were cultured under standard conditions at 37 °C and 5% CO2 in DMEM (Thermo) supplemented with 10% FBS (v/v) and penicillin-streptomycin (Thermo). Recombination cloning-compatible U2OS cells were generated using the Flp-In T-Rex Core Kit (Thermo) according to the manufacturer’s instructions and maintained under selection using Blasticidin (Invivogen) and Zeocin (Thermo). To generate cell lines stably expressing GFP-VCF1, U2OS Flp-In T-Rex cells (Thermo) were co-transfected with GFP-VCF1 constructs and pOG44 (Thermo) plasmids, followed by selection with Hygromycin (Invitrogen). Single clones were carefully screened for uniform expression of ectopic GFP-VCF1 at low levels and maintained under selection with Blasticidin and Hygromycin. To induce GFP-VCF1 expression, cells were treated with Doxycycline (DOX) (0.5 µg/ml) for 16 h. U2OS cell lines stably expressing Ub(G76V)-GFP or Ub(G76V)-GFP-20AA were described previously. A U2OS cell line stably expressing Ub(G76V)-GFP-NES was generated under G418 (Invivogen) selection. Clones with low baseline GFP expression were visually screened for low basal GFP expression. All cell lines used in this study were regularly tested negative for mycoplasma infection and were not authenticated.
# as §3
# GFP-Trap agarose (Chromotek) pulldowns were subjected to partial on-bead digestion for peptide elution, by addition of 100 µl of elution buffer (50 mM Tris, pH 7.5; 2 M urea; 2 mM DTT; 20 µg/ml trypsin) and incubation at 37 °C for 30 min. To carry out alkylation, 25 mM CAA was added to the samples, which were then left to digest overnight at room temperature. Digestion was halted by introducing 1% TFA. Purification and desalting of peptides were done using SDB-RPS StageTips. This process required preparing two layers of SDB-RPS with 100 µl of wash buffer (0.2% TFA in H2O), onto which the peptides were loaded. After centrifugation for 5 min at 500 × g, peptides were washed using 150 µl wash buffer, eluted with 50 µl elution buffer (80% ACN; 1% ammonia) and vacuum-dried.
# Liquid chromatography-mass spectrometry (LC-MS) analysis was conducted using an EASY-nLC-1200 system (Thermo Fisher Scientific), coupled with a timsTOF Pro spectrometer and a nano-electrospray ion source (Bruker Daltonik). […]
# p97 ATPase = assay: ATPase assay; assay type: biochemical, human; conditions: p97 25 nM, ATP 375 μM
# Method: For ATPase assays, 1 ml of 5x assay buffer (250 mM Tris, pH 7.4; 100 mM MgCl2; 5 mM EDTA) was mixed with 3 ml water, 5 μl 0.5 M TCEP and 5 μl 10% Triton X. To 40 ul of this assay buffer, recombinant proteins were added, mixed and incubated for 30 min. Final protein concentrations were as follows: p97 (25 nM), VCF1 (range of 0, 0.025, 1, 10 and 25 nM). The reactions were started by adding 10 μl ATP (final concentration of 375 μM) to the 40 μl reactions in a 96 well plate. After 35 min at room temperature, reactions were stopped by adding 50 μl BIOMOL Green reagent (Enzo Life Sciences). Absorbance at 635 nm was measured after 4 min and the relative ATPase activity calculated. Reactions were performed in duplicates and repeated three times.
# [3] = system: p97-UFD1-NPL4 binding to K48-Ub2-7; assay: FLAG IP: p97-UFD1-NPL4 binding to K48-linked ubiquitin chains, purified proteins; assay type: biochemical, human; conditions: high protein amounts, mild buffer
# Method: All in vitro binding experiments were performed in EBC or RIPA buffer as indicated. Recombinant Biotin-tagged K48-linked poly-ubiquitin chains (2−7) and K48-linked poly-ubiquitin chains (2−16) were purchased from R&D Systems and Enzo Life Science, respectively. Recombinant proteins were incubated with Strep-Tactin Sepharose (IBA), Glutathione agarose (Gold Biotechnology) or […] Fab-trap agarose (ChromoTek) overnight on an end-over-end rotator at 4 °C, washed six times with EBC or RIPA buffer, and resuspended in 2×Laemmli sample buffer. For p97, VCF1 or p47 pulldowns, antibodies (0.5 µg/sample) were coupled to agarose beads, incubated with recombinant proteins or cell lysates and washed with the indicated buffer. To assess p97-UFD1-NPL4 binding to ubiquitylated proteins in total cell extracts, U2OS cells were lysed in EBC buffer supplemented with protease and phosphatase inhibitors, sonicated and incubated on ice for 10 min. Lysates were cleared by centrifugation for 10 min at 16,100 × g. Cell lysate (40 µg) was added to recombinant proteins in EBC buffer, incubated overnight on the rotator with […] Fab-trap agarose (ChromoTek), and beads were washed six times.
# [4] = system: Ub(G76V)-GFP-NES, U2OS cells; assay: Imaging of Ub(G76V)-GFP-NES after siRNA or p97 inhibitor; assay type: cell-based, human; conditions: siRNA 20 nM or p97i (NMS-873) 2 h
# Method: as §1, §2
# T1 sequence (P55072 whole entry, the tested form may be a part): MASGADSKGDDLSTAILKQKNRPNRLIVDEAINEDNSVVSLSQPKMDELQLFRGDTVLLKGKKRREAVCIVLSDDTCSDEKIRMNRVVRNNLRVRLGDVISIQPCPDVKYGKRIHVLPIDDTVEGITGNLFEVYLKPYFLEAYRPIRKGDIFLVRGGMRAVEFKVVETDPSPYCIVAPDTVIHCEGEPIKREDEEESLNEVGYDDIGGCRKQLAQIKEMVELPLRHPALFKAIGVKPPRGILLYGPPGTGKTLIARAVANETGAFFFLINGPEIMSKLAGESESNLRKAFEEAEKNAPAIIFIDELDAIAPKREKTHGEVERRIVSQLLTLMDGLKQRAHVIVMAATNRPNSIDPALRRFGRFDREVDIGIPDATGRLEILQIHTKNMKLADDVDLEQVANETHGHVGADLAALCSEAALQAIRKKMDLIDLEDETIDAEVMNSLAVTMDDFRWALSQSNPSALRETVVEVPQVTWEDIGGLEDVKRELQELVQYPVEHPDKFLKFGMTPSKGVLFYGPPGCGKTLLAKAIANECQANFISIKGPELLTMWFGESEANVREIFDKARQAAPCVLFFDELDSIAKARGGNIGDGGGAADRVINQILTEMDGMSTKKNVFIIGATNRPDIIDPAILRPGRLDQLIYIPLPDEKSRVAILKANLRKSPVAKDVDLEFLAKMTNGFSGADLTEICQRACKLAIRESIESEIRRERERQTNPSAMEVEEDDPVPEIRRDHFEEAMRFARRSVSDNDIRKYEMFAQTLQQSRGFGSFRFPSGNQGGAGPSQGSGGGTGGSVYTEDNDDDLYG
molecule,measurement,setting,value
5’-CACGCCUAAUCCUGUUGACAA-3’ [NPL4 siRNA],effect on Ub(G76V)-GFP level,"Ub(G76V)-GFP, U2OS cells",increased Ub(G76V)-GFP abundance as expected
same,reduction in NPL4 abundance,[1],~ 50%
VCF1 N167A: full-length VCF1 with N167A point mutation in VRM,binding to p97 WT (in words),p97 (His6-p97 WT),abrogated binding to p97
same,effect of alanine scan on p97 binding,p97,essential for VCF1 binding to p97
same,p97 binding of N167A vs WT,[2],strong loss of p97 binding
same,relative ATPase activity,"p97 ATPase; 0.025 nM, replicate 1",1.034
same,relative ATPase activity,"p97 ATPase; 0.025 nM, replicate 2",0.974
same,relative ATPase activity,"p97 ATPase; 0.025 nM, replicate 3",1.059
same,relative ATPase activity,"p97 ATPase; 1 nM, replicate 1",1.009
same,relative ATPase activity,"p97 ATPase; 1 nM, replicate 2",1.013
same,relative ATPase activity,"p97 ATPase; 1 nM, replicate 3",1.024
same,relative ATPase activity,"p97 ATPase; 10 nM, replicate 1",1.046
same,relative ATPase activity,"p97 ATPase; 10 nM, replicate 2",0.967
same,relative ATPase activity,"p97 ATPase; 10 nM, replicate 3",0.99
same,residual binding of N167A mutant to p97,[3],very weak residual binding to p97
Cc1cc(OCc2nnc(SC3CCCC3)n2-c2cccnc2)ccc1-c1ccc(S(C)(=O)=O)cc1 [NMS-873],effect on Ub(G76V)-GFP-NES,[4],strong Ub(G76V)-GFP-NES accumulation
